The values that follow come from patent publication US20160108110A1 (Novartis, published 2016).

For assay [1], the target named is T1, Human ANGPTL4(26-406)-FLAG-His6-Avi (human, UniProt Q9BY76 24-406, biotin on the C-terminal Avi tag in the biotinylated preparations (immobilised form in SET, ELISA and Octet)).
T1 sequence: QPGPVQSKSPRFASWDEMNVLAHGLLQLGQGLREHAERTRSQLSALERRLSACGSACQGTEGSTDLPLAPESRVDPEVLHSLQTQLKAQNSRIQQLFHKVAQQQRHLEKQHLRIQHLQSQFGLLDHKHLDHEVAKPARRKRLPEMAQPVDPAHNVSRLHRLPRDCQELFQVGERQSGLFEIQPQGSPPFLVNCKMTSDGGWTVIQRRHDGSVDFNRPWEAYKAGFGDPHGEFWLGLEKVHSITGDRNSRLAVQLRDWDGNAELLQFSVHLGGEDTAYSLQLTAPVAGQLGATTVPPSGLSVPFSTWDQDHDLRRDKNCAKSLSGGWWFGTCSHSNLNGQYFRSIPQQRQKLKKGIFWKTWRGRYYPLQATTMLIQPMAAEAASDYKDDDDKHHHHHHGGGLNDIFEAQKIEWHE
The assay is described as follows: cell-based or functional assay.

In assay [2] the target is T1, Human ANGPTL4(26-406)-FLAG-His6-Avi. Description: SET assay (solution equilibrium titration, MSD), IgG. As to the method:
(§1) SET assays were performed as follows. In a 96-well polypropylene plate, a constant concentration of ANGPTL4 antibody was mixed with different concentrations of non-biotinylated human, cyno, mouse, or rat full-length ANPGLT4 protein, or human ANGPTL4 N-terminal domain protein (5-fold serial dilution) and incubated at 22° C. for 14 hours with constant shaking (300 rpm). On a pre-blocked 384-well streptavidin-coated Meso Scale Discovery (MSD) plate biotinylated ANGPTL4 (full-length human, cyno, mouse, or rat ANGPTL4, or human ANGPTL4 N-terminal domain) protein (1 nM, 15 μL per well) was immobilized and washed thereafter.
(§2) The equilibrium binding reactions (15 μL per well) were applied to the MSD plate with immobilized ANGPTL4 and incubated for 20 min at 22° C. The unbound material was removed by washing the plate 3 times with wash buffer, and the captured antibody was detected by adding Sulfo-tagged goat anti-human IgG (Meso Scale Discovery). After washing MSD read buffer T was added and the plate was developed using a Sector Imager 6000 (Meso Scale Discovery). The data were transferred to Microsoft Excel for analysis and plotted using GraphPad Prism v6. The KD values were determined by fitting the data to the following equation: […]
(§3) where Bₘₐₓ is the signal when no ANGPTL4 protein is present in solution, CAb is the constant concentration of ANGPTL4 antibody in solution, CAg is the concentration of ANGPTL4 in solution, and KD is the equilibrium dissociation constant.

For assay [3], the target named is T2, Mouse ANGPTL4(26-410)-FLAG-His6-Avi (mouse, UniProt Q9Z1P8 24-410, biotin on the C-terminal Avi tag in the immobilised form).
T2 sequence: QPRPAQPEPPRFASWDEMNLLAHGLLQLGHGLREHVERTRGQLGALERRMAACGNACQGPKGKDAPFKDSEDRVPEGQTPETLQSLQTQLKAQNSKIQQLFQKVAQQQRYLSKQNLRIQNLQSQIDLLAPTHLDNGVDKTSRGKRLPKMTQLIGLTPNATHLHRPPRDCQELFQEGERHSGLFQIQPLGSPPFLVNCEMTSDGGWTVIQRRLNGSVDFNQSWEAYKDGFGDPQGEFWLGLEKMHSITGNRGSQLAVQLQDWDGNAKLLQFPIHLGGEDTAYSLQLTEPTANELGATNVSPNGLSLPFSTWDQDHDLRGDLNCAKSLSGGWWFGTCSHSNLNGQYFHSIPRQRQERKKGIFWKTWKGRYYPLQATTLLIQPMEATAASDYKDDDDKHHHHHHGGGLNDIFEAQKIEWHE
The description is as above. On the procedure:
as §1, §2, §3

Assay [4] addresses T1, Human ANGPTL4(26-406)-FLAG-His6-Avi. The assay is described as follows: ForteBio Octet, biotinylated antigen on streptavidin sensor, antibody in solution. As to the method:
Dissociation constants (KD) were determined for selected antibodies of the invention by using an Octet (ForteBio) kinetic binding assay. ForteBio 10× Kinetics Buffer (ForteBio, catalog number 18-5032) was diluted 10-fold with DPBS (Life Technologies, catalog number 14190-136), and the resulting solution was added (0.2 ml per well) to a 96-well plate (Greiner, catalog number 65520). Streptavidin sensors (ForteBio, catalog number 18-5020) were immersed in the solution and equilibrated for at least 10 min at room temperature. In a second 96-well plate (Greiner, catalog number 65520), sensors were washed in 1× Kinetics buffer, and then immersed in 200 ul of 25 nM biotinylated human ANGPTL4 or a biotinylated reference protein (for background substraction) for 1000 sec […] at room temperature. The sensors were then washed in 1× Kinetics buffer for 120 sec, and immersed in 200 ul of ANGPTL4 antibody diluted in 1× Kinetics buffer at various concentrations (serial 2-fold dilutions ranging from 25 nM to 0.4 nM), and antibody association was monitored for 480 seconds. The sensors were then transferred to a well containing 200 ul 1× Kinetics buffer, and antibody dissociation was monitored for 1200 seconds. Background-corrected association and dissociation curves were globally fitted by Octet Software (ForteBio) to generate association (kₒₙ) and dissociation (koff) rate constants, which in turn were used to calculate equilibrium dissociation constants (KD).
In general terms: In BLI a coated tip is dipped into the sample, and binding shifts an interference pattern.

B1: MOR021798 (antibody, human IgG1, lambda, V domains shown)
VH: QVQLLESGGGLVQPGGSLRLSCAASGFTFSDYALHWVRQAPGKGLEWVSRISYMGSSTYYADSVKGRFTISRDNSKNTLYLQMNSLRAEDTAVYYCAREHYYSSPMGGVAVDNWGQGTLVTVSS
VL: DIVLTQPPSVSGAPGQRVTISCSGSSSNIGYNTVSWYQQLPGTAPKLLIYSNNIRPSGVPDRFSGSKSGTSASLAITGLQAEDEADYYCSSWDFLIKSLVFGGGTKLTVLG
notes: human IgG1
In the case of B1, the “Reversal of human ANGPTL4 inhibition of human LPL EC50” value in assay [1] worked out at 2 nM. Moreover, the Kd (in general, a measure of binding affinity in units of concentration) is 0.093 nM in assay [2], 0.517 nM in assay [3] and 0.444 nM in assay [4]. Also, in assay [4], the koff (usually the rate constant with which the complex falls apart) amounted to 9.9e-05 s⁻¹. The kon (in general, the second-order rate constant of association) in assay [4] was 220000 M⁻¹ s⁻¹.

B2: MOR022765 (antibody, human IgG1, lambda, V domains shown)
VH: EVQLVQSGAEVKKPGESLKISCKGSGYSFSTYWISWVRQMPGKGLEWMGIIDPSSSDTRYSPSFQGQVTISADKSISTAYLQWSSLKASDTAMYYCARVYGYVYMDVWGQGTLVTVSS
VL: SYELTQPLSVSVALGQTARITCSGDNLGKKYAYWYQQKPGQAPVLVIYDKTKRPSGIPERFSGSNSGNTATLTISRAQAGDEADYYCASYDWYSSSYVFGGGTKLTVLG
notes: human IgG1
In turn, B2 returned a Kd in assay [2] of 0.01 nM.

B3: MOR021792 (antibody, human IgG1, lambda, V domains shown)
VH: QVQLLESGGGLVQPGGSLRLSCAASGFTFSDYAMDWVRQAPGKGLEWVSKISYDGSYTYYADSVKGRFTISRDNSKNTLYLQMNSLRAEDTAVYYCARPSMSYYIIPAGFDVWGQGTLVTVSS
VL: DIELTQPPSVSVSPGQTASITCSGDALGVKRASWYQQKPGQAPVLVIYKDNNRPSGIPERFSGSNSGNTATLTISGTQAEDEADYYCSVRTWSMNLYVFGGGTKLTVLG
B3: in assay [1], the “Reversal of human ANGPTL4 inhibition of human LPL EC50” value worked out at 1 nM. The molecule further displayed a Kd in assay [2] of 0.01 nM. In assay [3], this molecule returned a Kd of 0.005 nM. In assay [4], this molecule came in with a Kd of 0.184 nM, a koff of 6.5e-05 s⁻¹ and a kon of 250000 M⁻¹ s⁻¹.
